Patent publication EP4138793B1, “NOVEL NON-PROTEINIC FURIN INHIBITOR” (priority 2020, dated 2021)
The star is where a group is joined. Decanoyl = CCCCCCCCCC(=O)*; CH2Cl = ClC*

Target: furine humaine recombinante (Homo sapiens, UniProt P09958)
Assay: Inhibition of furin enzyme activity (cleavage of a fluorescent substrate)
Format: biochemical
Details: reference inhibitor tested at 100 nm
Method: L'expérience est réalisée en utilisant une furine humaine recombinante, qui catalyse le clivage d'un substrat spécifique fluorescent.
Le décanoyl-Arg-Val-Lys-Arg-CMK à 100 nm a été utilisé comme inhibiteur de référence de l'activité de la furine.
La furine est pré-incubée pendant 10 minutes à température ambiante en l'absence (contrôle) ou en présence du produit de référence ou de concentrations croissantes du composé testé : «Amyrines purifiées de Protium heptaphyllum»; 25 ppm; 250 ppm et 1000 ppm (v / v). Le produit «Amyrines purifiées de Protium heptaphyllum» , AMY à 1000 PPM correspond à une solution 0,5% en volume du produit HTRE commercialisé par la société Ephyla.
À la fin de l'étape de pré-incubation, un substrat de furine a été ajouté et les conditions expérimentales ont été incubées à nouveau à température ambiante à l'abri de la lumière pendant 5 minutes. Toutes les expériences ont été réalisées en triplicate.
Le composé d'essai " Amyrines purifiées de Protium heptaphyllum " pré-solubilisé à 10 000 ppm dans du DMSO. La solution a ensuite été diluée dans du tampon d'essai afin d'atteindre les concentrations décrite ci-dessus.
Le clivage du substrat fluorescent de furine a été suivi pendant 5 minutes après l'addition du substrat en lisant la fluorescence à 485 nm / 535 nm.
Les résultats sont exprimés en RFU (unités fluorescentes relatives) +/- S.D. (Écart-type).

Chain of furine humaine recombinante (P09958 108-794): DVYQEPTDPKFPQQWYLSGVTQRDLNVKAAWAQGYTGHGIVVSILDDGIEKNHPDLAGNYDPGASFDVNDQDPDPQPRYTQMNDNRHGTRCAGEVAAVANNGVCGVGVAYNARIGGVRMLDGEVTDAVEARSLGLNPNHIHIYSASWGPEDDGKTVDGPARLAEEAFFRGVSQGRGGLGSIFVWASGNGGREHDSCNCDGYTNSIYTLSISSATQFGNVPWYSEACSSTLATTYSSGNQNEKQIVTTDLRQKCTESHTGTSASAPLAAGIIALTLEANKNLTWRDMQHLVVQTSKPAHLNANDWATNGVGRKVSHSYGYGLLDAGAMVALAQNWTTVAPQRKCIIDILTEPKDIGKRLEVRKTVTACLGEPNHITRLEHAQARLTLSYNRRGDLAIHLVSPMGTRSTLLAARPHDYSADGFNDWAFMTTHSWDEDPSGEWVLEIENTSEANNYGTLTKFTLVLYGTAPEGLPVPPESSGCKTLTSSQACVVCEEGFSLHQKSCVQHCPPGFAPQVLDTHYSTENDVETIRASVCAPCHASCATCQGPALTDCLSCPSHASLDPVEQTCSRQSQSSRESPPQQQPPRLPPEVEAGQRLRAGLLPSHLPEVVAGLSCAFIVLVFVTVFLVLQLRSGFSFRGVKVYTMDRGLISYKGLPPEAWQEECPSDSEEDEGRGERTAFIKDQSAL

In the case of “Decanoyl-Arg-Val-Lys-Arg-CMK (Decanoyl-RVKR-CH2Cl)”, the “inhibition de l'activité de la furine” value is reported as 97,9%.
